To fix the notation:
B1: MAControl λκ (anti-cMET/anti-Axl IgG BsAb without Fab redesigns) (bispecific antibody)
heavy 1: EVQLVESGGGLVQPGGSLRLSCAASGYTFTSYWLHWVRQAPGKGLEWVGMIDPSNSDTRFNPNFKDRFTISADTSKNTAYLQMNSLRAEDTAVYYCATYRSYVTPLDYWGQGTLVTVSSASTKGPSVFPLAPSSKSTSGGTAALGCLVKDYFPEPVTVSWNSGALTSGVHTFPAVLQSSGLYSLSSVVTVPSSSLGTQTYICNVNHKPSNTKVDKKVEPKSCDKTHTCPPCPAPELLGGPSVFLFPPKPKDTLMISRTPEVTCVVVDVSHEDPEVKFNWYVDGVEVHNAKTKPREEQYQSTYRVVSVLTVLHQDWLNGKEYKCKVSNKALPAPIEKTISKAKGQPREPQVYTLPPSRDELTKNQVSLTCLVKGFYPSDIAVEWESNGQPENNYDTTPPVLDSDGSFFLYSDLTVDKSRWQQGNVFSCSVMHEALHNHYTQKSLSLSPG
light 1: DIQMTQSPSSLSASVGDRVTITCKSSQSLLYTSSQKNYLAWYQQKPGKAPKLLIYWASTRESGVPSRFSGSGSGTDFTLTISSLQPEDFATYYCQQYYAYPWTFGQGTKVEIKGQPKAAPSVTLFPPSSEELQANKATLVCLISDFYPGAVTVAWKADSSPVKAGVETTTPSKQSNNKYAASSYLSLTPEQWKSHRSYSCQVTHEGSTVEKTVAPTEC
heavy 2: EVQLVESGGGLVQPGGSLRLSCAASGFSLSGSWIHWVRQAPGKGLEWVGWINPYRGYAYYADSVKGRFTISADTSKNTAYLQMNSLRAEDTAVYYCAREYSGWGGSSVGYAMDYWGQGTLVTVSSASTKGPSVFPLAPSSKSTSGGTAALGCLVKDYFPEPVTVSWNSGALTSGVHTFPAVLQSSGLYSLSSVVTVPSSSLGTQTYICNVNHKPSNTKVDKKVEPKSCDKTHTCPPCPAPELLGGPSVFLFPPKPKDTLMISRTPEVTCVVVDVSHEDPEVKFNWYVDGVEVHNAKTKPREEQYQSTYRVVSVLTVLHQDWLNGKEYKCKVSNKALPAPIEKTISKAKGQPREPQVYTLPPSRKELTKNQVSLTCLVKGFYPSDIAVEWESNGQPENNYKTTPPVLKSDGSFFLYSKLTVDKSRWQQGNVFSCSVMHEALHNHYTQKSLSLSPG
light 2: DIQMTQSPSSLSASVGDRVTITCRASQDVSTAVAWYQQKPGKAPKLLIYSASFLYSGVPSRFSGSGSGTDFTLTISSLQPEDFATYYCQQSYTTPPTFGQGTKVEIKRTVAAPSVFIFPPSDEQLKSGTASVVCLLNNFYPREAKVQWKVDNALQSGNSQESVTEQDSKDSTYSLSSTLTLSKADYEKHKVYACEVTHQGLSSPVTKSFNRGEC
B2: MADesign κλ (anti-cMET/anti-Axl IgG BsAb with Fab redesigns) (bispecific antibody)
heavy 1: EVQLVESGGGLVQPGGSLRLSCAASGYTFTSYWLHWVRKAPGKGLEWVGMIDPSNSDTRFNPEFKDRFTISADTSKNTAYLQMNSLRAEDTAVYYCATYRSYVTPLDYWGQGTLVTVSSASTKGPSVFPLAPSSKSTSGGTAALGCLVKDYFPEPVTVSWNSGALTSGVATGPAVLQSSGLYSLSSVVTVPSSSLGTQTYICNVNHKPSNTKVDKKVEPKSCDKTHTCPPCPAPELLGGPSVFLFPPKPKDTLMISRTPEVTCVVVDVSHEDPEVKFNWYVDGVEVHNAKTKPREEQYQSTYRVVSVLTVLHQDWLNGKEYKCKVSNKALPAPIEKTISKAKGQPREPQVYTLPPSRDELTKNQVSLTCLVKGFYPSDIAVEWESNGQPENNYDTTPPVLDSDGSFFLYSDLTVDKSRWQQGNVFSCSVMHEALHNHYTQKSLSLSPG
light 1: RIQMTQSPSSLSASVGDRVTITCKSSQSLLYTSSQKNYLAWYQDKPGKAPKLLIYWASTRESGVPSRFSGSGSGTDFTLTISSLQPEDFATYYCQQYYAYPWTFGQGTKVEIKRTVAAPSVFIFPPSDEQLKSGTASVVCYLNNFYPREAKVQWKVDNALQSGNSQESVTEQDSKDSTYSLWSTLTLSKADYEKHKVYACEVTHQGLSSPVTKSFNRGEC
heavy 2: EVQLVESGGGLVQPGGSLRLSCAASGFSLSGSWIHWVRYAPGKGLEWVGWINPYRGYAYYADSVKGRFTISADTSKNTAYLQMNSLRAEDTAVYYCAREYSGWGGSSVGYAMDYWGQGTLVTVSSASTKGPSVFPLAPSSKSTSGGTAALGCLVKDYFPEPVTVSWNSGALTSGVHTFPAVLQSSGLYSLSSVVTVPSSSLGTQTYICNVNHKPSNTKVDKKVEPKSCDKTHTCPPCPAPELLGGPSVFLFPPKPKDTLMISRTPEVTCVVVDVSHEDPEVKFNWYVDGVEVHNAKTKPREEQYQSTYRVVSVLTVLHQDWLNGKEYKCKVSNKALPAPIEKTISKAKGQPREPQVYTLPPSRKELTKNQVSLTCLVKGFYPSDIAVEWESNGQPENNYKTTPPVLKSDGSFFLYSKLTVDKSRWQQGNVFSCSVMHEALHNHYTQKSLSLSPG
light 2: DIQMTQSPSSLSASVGDRVTITCRASQDVSTAVAWYQRKPGKAPKLLIYSASFLYSGVPSRFSGSGSGTDFTLTISSLQPEDFATYYCQQSYTTPPTFGQGTKVEIKGQPKAAPSVTLFPPSSEELQANKATLVCLISDFYPGAVTVAWKADSSPVKAGVETTTPSKQSNNKYAASSYLSLTPEQWKSHRSYSCQVTHEGSTVEKTVAPTEC
notes: also called MA Designs
B3: MADesign λκ (anti-cMET/anti-Axl IgG BsAb with Fab redesigns) (bispecific antibody)
heavy 1: EVQLVESGGGLVQPGGSLRLSCAASGYTFTSYWLHWVRKAPGKGLEWVGMIDPSNSDTRFNPEFKDRFTISADTSKNTAYLQMNSLRAEDTAVYYCATYRSYVTPLDYWGQGTLVTVSSASTKGPSVFPLAPSSKSTSGGTAALGCLVKDYFPEPVTVSWNSGALTSGVATGPAVLQSSGLYSLSSVVTVPSSSLGTQTYICNVNHKPSNTKVDKKVEPKSCDKTHTCPPCPAPELLGGPSVFLFPPKPKDTLMISRTPEVTCVVVDVSHEDPEVKFNWYVDGVEVHNAKTKPREEQYQSTYRVVSVLTVLHQDWLNGKEYKCKVSNKALPAPIEKTISKAKGQPREPQVYTLPPSRDELTKNQVSLTCLVKGFYPSDIAVEWESNGQPENNYDTTPPVLDSDGSFFLYSDLTVDKSRWQQGNVFSCSVMHEALHNHYTQKSLSLSPG
light 1: RIQMTQSPSSLSASVGDRVTITCKSSQSLLYTSSQKNYLAWYQDKPGKAPKLLIYWASTRESGVPSRFSGSGSGTDFTLTISSLQPEDFATYYCQQYYAYPWTFGQGTKVEIKGQPKAAPSVTLFPPSSEELQANKATLVCYISDFYPGAVTVAWKADSSPVKAGVETTTPSKQSNNKYAAWSYLSLTPEQWKSHRSYSCQVTHEGSTVEKTVAPTEC
heavy 2: EVQLVESGGGLVQPGGSLRLSCAASGFSLSGSWIHWVRYAPGKGLEWVGWINPYRGYAYYADSVKGRFTISADTSKNTAYLQMNSLRAEDTAVYYCAREYSGWGGSSVGYAMDYWGQGTLVTVSSASTKGPSVFPLAPSSKSTSGGTAALGCLVKDYFPEPVTVSWNSGALTSGVHTFPAVLQSSGLYSLSSVVTVPSSSLGTQTYICNVNHKPSNTKVDKKVEPKSCDKTHTCPPCPAPELLGGPSVFLFPPKPKDTLMISRTPEVTCVVVDVSHEDPEVKFNWYVDGVEVHNAKTKPREEQYQSTYRVVSVLTVLHQDWLNGKEYKCKVSNKALPAPIEKTISKAKGQPREPQVYTLPPSRKELTKNQVSLTCLVKGFYPSDIAVEWESNGQPENNYKTTPPVLKSDGSFFLYSKLTVDKSRWQQGNVFSCSVMHEALHNHYTQKSLSLSPG
light 2: DIQMTQSPSSLSASVGDRVTITCRASQDVSTAVAWYQRKPGKAPKLLIYSASFLYSGVPSRFSGSGSGTDFTLTISSLQPEDFATYYCQQSYTTPPTFGQGTKVEIKRTVAAPSVFIFPPSDEQLKSGTASVVCLLNNFYPREAKVQWKVDNALQSGNSQESVTEQDSKDSTYSLSSTLTLSKADYEKHKVYACEVTHQGLSSPVTKSFNRGEC
notes: also called MA Designs

For this assay, the target named is T1, hHGFR(cMet)-Fc (human, UniProt P08581 25-932).
T1 construct: Coated in the sandwich ELISA; second injection in SPR; not shown: Fc part of the bought fusion protein
T1 sequence (P08581 25-932): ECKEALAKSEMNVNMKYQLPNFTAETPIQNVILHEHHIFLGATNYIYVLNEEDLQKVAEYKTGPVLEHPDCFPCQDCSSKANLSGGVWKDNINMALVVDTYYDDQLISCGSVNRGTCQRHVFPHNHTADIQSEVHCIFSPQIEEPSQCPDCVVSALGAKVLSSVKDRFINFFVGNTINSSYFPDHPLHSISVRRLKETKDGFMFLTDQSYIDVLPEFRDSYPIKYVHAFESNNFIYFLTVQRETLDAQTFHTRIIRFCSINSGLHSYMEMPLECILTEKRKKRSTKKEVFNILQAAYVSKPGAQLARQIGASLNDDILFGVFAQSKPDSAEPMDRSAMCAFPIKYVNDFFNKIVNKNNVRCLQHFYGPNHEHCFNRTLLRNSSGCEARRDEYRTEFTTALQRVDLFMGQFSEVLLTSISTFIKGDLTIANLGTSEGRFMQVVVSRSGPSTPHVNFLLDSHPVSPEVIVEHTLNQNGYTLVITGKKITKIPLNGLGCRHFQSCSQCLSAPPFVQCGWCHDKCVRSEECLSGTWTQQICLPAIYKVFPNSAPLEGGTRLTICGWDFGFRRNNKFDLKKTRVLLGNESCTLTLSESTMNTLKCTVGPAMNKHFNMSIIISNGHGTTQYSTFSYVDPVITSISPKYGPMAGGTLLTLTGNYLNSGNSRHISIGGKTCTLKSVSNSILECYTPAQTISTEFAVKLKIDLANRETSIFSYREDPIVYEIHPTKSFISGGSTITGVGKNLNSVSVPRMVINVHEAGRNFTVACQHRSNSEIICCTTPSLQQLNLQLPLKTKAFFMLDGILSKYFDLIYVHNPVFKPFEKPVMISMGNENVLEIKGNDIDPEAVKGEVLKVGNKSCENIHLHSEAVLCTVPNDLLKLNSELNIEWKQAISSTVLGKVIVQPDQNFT
Briefly: sandwich ELISA: hHGFR(cMet)-Fc coated, BsAb, hAxl-Fc-biotin detection. The procedure: Two sandwich ELISAs are developed, one for detecting anti-HER-2/anti-EGFR BsAb activity and one for detecting anti-cMET/anti-Axl BsAb activity. For both ELISAs, clear 96-well round bottom high binding Immulon microtiter plates (Greiner bio-one, cat#650061) are coated overnight at 2-8° C. with 50 μL/well 1 μg/mL hHER-2-Fc or 1 μg/mL hHGFR(cMet)-Fc (both from R&D systems) in a 50 mM Na₂CO₃ pH 8 buffer. The plates are washed 4 times with PB ST and blocked with 100 μL/well casein buffer (Pierce) for 1 hr at 37° C. The plates are then washed 4 times with PBST and the parental IgG controls or BsAb IgG test articles are added at 50 μL/well and 5 μg/mL and serially diluted 1:3 down the plate. The test articles are incubated on the plate for 1 hr at 37° C. The plates are then washed 4 times with PBST and 50 μL/well 0.2 μg/mL hEGFR-Fc-biotin or hAxl-Fc-biotin (both from R&D systems) is added for 1 hr at 37° C. The plates are then washed 4 times with PBST followed by the addition of a 50 μL/well streptavidin-HRP (Jackson Labs) diluted 1:2000 in PBST. The streptavidin-HRP is incubated in each well for 1 hr at 37° C. The plates are then washed 4 times with PBST and 100 μL/well 1-component TMB substrate is added (KPL laboratories). After approximately 10 minutes, […] 1% H₃PO₄ (in H₂O) is added to each plate to quench the reaction. Absorbance (450 nm) of every well in the plates is read using a SpectraMax UV plate reader (Molecular Devices). Biotin-labeling of the hEGFR-Fc and hAxl-Fc proteins is performed using EZ-Link Sulfo-NHS-LC-Biotin (Thermo Scientific) according to the manufacturer's protocol.
(An ELISA detects its analyte on a solid surface through an enzyme-linked reagent.)
As for B1, the binding result is recorded as “binds”.

As to B2, the binding result is given as “binds”.

With B3, the binding result is on record as “binds”.

Source of the values: US20160039947A1 (Eli Lilly, published 2016).
